We go through five molecules from patent US20230094463A1 (TRUEBINDING, published 2023).

The target in test [1] is T1, Human Galectin-3 protein (Acro Biosystems, GA3-H5129) (human, UniProt P17931 2-250).
T1 construct: Bought protein; also called Gal3-ECD-His; Gal3-His; not shown: linker-spaced 6-histidine tag
As to the kind of experiment: SPR (Biacore T200; antibody captured via anti-Fc, Galectin-3 analyte, 1:1 fit).

Test [2] has as its target T1, Human Galectin-3 protein (Acro …). As to the kind of experiment: ELISA, blocking of INSR binding to coated Gal3. In general terms: In an ELISA, binding on a coated surface is turned into a signal by an enzyme label.
The target of test [3] is T2, Human GAL3 protein (TrueBinding, QCB200349 / QCB200352; R&D Systems, 8259-GA) (human, UniProt P17931 2-250).
T2 construct: also called human galectin-3
As to the kind of experiment: blocking ELISA (GAL3 coated; antibody + biotinylated ITGaV).

Test [4] deals with T2, Human GAL3 protein (TrueBinding, …). As to the kind of experiment: blocking ELISA (GAL3 coated; antibody + biotinylated ITGb3).
The target is the same in test [5]. As to the kind of experiment: blocking ELISA (GAL3 coated; antibody + biotinylated ITGa3).
In test [6] the target is T1, Human Galectin-3 protein (Acro …). As to the kind of experiment: SPR (Biacore T200), antibody captured, Galectin-3 as analyte.
Test [7] shares this target. As to the kind of experiment: blocking ELISA (Gal3 coated; antibody 3 µg/mL + INSR).
For test [8] the target is unchanged. As to the kind of experiment: ELISA, blocking of INSR binding to coated Gal3. This is another data set of the same source.
In test [9] the target is T3, Gal3 Peptide 7 (AYPGAPGAYPGAPAPGVYPG) (human).
T3 peptide: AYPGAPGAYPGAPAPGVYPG
As to the kind of experiment: peptide ELISA (peptide coated).

For test [10], the target named is T4, Gal3 Peptide 1 (ADNFSLHDALSGSGNPNPQG) (human).
T4 peptide: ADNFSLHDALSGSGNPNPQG
As to the kind of experiment: peptide ELISA (peptide coated).

Test [11] deals with T3, Gal3 Peptide 7 (AYPGAPGAYPGAPAPGVYPG). As to the kind of experiment: peptide ELISA: Gal3 peptide coated on the plate, antibody (hIgG4 S228P) at 5 µg/mL, anti-human IgG-HRP, A450 (Example 18).
Test [12] has as its target T4, Gal3 Peptide 1 (ADNFSLHDALSGSGNPNPQG). The test is described as above.
The target of test [13] is T5, Gal3 Peptide 6 (GAYPGQAPPGAYPGAPGAYP) (human).
T5 peptide: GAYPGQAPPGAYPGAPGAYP
The test is described as above.

For test [14], the target named is T3, Gal3 Peptide 7 (AYPGAPGAYPGAPAPGVYPG). As to the kind of experiment: peptide ELISA (peptide coated; antibody hIgG4 [S228P], 5 µg/mL).
The target of test [15] is T4, Gal3 Peptide 1 (ADNFSLHDALSGSGNPNPQG). Described as above.
For test [16], the target named is T5, Gal3 Peptide 6 (GAYPGQAPPGAYPGAPGAYP). The description is as above.
The target of test [17] is T2, Human GAL3 protein (TrueBinding, …). As to the kind of experiment: cell-based or functional assay.

B1: 13G4.2F8 (antibody, V domains shown)
VH: QVQLQQPGAELVKPGASVKLSCKASGYTFTSYWMHWVKQRPGQGLEWIGMIHPNSGSTDYNEKFKNKATLNVDKSSSTAYIQLSSLTSEDSAVYYCTRWGIYYYARDYWGQGTTLTVSS
VL: DIVMTQSQKFMSTSVGERVSITCKASQNVGTNVAWYQQKAGQSLELLIYGASNRHTGVPDRFTGSGSGTDFTLTITNVQSEDMTNYFCEQYSNFPLTFGAGTKLELK
The Kd is the concentration at which binding is half-saturated. Higher therefore signals a looser complex. Turning to B1, the Kd in [1] came to 18.4 nM; in [6] it was 2.53 nM. Moreover, the “Gal3-INSR Blocking @ 3 µg/mL” value in [2] was 11%. The “percent blockade of GAL3-ITGaV interaction” value in test [3] was under 30%. Besides, the “percent blockade of GAL3-ITGb3 interaction” value in [4] is under 10%. The “percent blockade of GAL3-ITGa3 interaction” value in test [5] is under 35%. Also, the “reduction of Gal3-INSR binding (%)” value in test [7] is at most 30%.

B2: 6H6.2D6 (antibody, V domains shown)
VH: QIQLVQSGPELKKPGETVKISCKASGYTFTTYGMSWVKQAPGKGLKWMAWINTYSGVPTYADDFKGRFAFSLETSASTAYLQINNLTNEDTATYFCARGPYAMDYWGQGTSVTVSS
VL: DIQMTQTTSSLSASLGDRVTISCSASQGISNYLNWYQQKPDGTVKLLIYYTSSLHSGVPSRFSGSGSGTDYSLTISNLEPEDIATYYCQQYSELPYTFGSGTKLEIK
In the case of B2, in test [2], the “Gal3-INSR Blocking @ 3 µg/mL” value worked out at 100%. Further, in [8], the “IC50 (read off the curve)” value was about 0.5 µg/mL. Also, the binding result in test [9] and in test [10] was “binds” each time. Further, in [6], the Kd stood at 4.86 nM. Moreover, in [7], the “Gal3-INSR binding remaining, % of unblocked sample” value (shortened to “Gal3-INSR binding remaining, %”) was under 5%.

B3: 23H9.2E4 (antibody, V domains shown)
VH: QIQLVQSGPELKKPGETVKISCKASGYTFTTYAMSWVKQAPGKGLKWMGWINTYSGVPTYADDLKGRFAFSLETSASTAYLQINNLKNEDTATYFCARGPYAMDYWGQGTSVTVSS
VL: DIQMTQTTSSLSASLGDRVTISCSASQGINNYLNWYQQKPDGTVKLLIYYASSLHSGVPSRFSGSGSGTDYSLTISNLEPEDIATYYCQQYSQVPYTFGSGTKLEIK
Consider B3, for which the “Gal3-INSR Blocking @ 3 µg/mL” value in test [2] stood at 100%. In addition, the “percent blockade of GAL3-ITGaV interaction” value in test [3] was over 90%. Moreover, the “percent blockade of GAL3-ITGb3 interaction” value in test [4] was over 90%. Also, the binding result in [11], in test [12] and in [13] was “binds” throughout. Moreover, the “percent blockade of GAL3-ITGa3 interaction” value in test [5] was over 90%. In test [6], this molecule had a Kd of 4.26 nM. Besides, the “Gal3-INSR binding remaining, %” value in test [7] is under 5%.

B4: 20H5.A3 (antibody, V domains shown)
VH: QIQLVQSGPELKKPGESVKISCKASGYAFTTYGMSWVQQAPGKGLKWMGWVNTYSGVPTCADDFKGRFAFSLETSASTAYLQINNLRNEDTATYFCARGPYAMDYWGQGTSVTVSS
VL: DIQMTQTTSSLSASLGDRVTINCSASQDISNYLNWYQQKPDGTVKLLIYYTSSLLSGVPSRFSGSGSGTDYSLTISNLEPEDIATYFCQQYSKLPYTFGSGTHLEIK
On to B4, for which the “Gal3-INSR Blocking @ 3 µg/mL” value in test [2] was determined as 100%. Besides, the “IC50 (read off the curve)” value in test [8] was about 0.5 µg/mL. For the same molecule, the “percent blockade of GAL3-ITGaV interaction” value in test [3] was over 90%. Besides, in test [4], the “percent blockade of GAL3-ITGb3 interaction” value was over 90%. Also, the “percent blockade of GAL3-ITGa3 interaction” value in test [5] is over 90%. For the same molecule, the Kd in test [6] stood at 3.95 nM. The binding result in [14], in test [15] and in [16] was “binds” each time. Further, in [7], the “Gal3-INSR binding remaining, %” value is under 5%.

B5: 20D11.2C6 (antibody, V domains shown)
VH: EVQLQQSGPELVKPGASVKISCKASGYTFTDFYINWVKQSHGKSLEWIGDINPKNGGINYNPKFKIKATLTVDKSSSTSYMDLRGLTSEDSAVYYCTSGYGFPYWGQGTLVTVSA
VL: DIQMNQSPSSLSASLGDTITITCRASQNIYIWLSWYQQKPGNIPKLLIYKASNLHTGVPSRFSGSGSGTDFTLTISTLQPEDIATYFCLQGQSYPLTFGAGTKLEMK
As to B5, the “inhibition of Jurkat T cell adhesion” value in test [17] was over 90%. The “Gal3-INSR Blocking @ 3 µg/mL” value in test [2] stood at 100%. In addition, the “percent blockade of GAL3-ITGaV interaction” value in [3] is over 90%. The “percent blockade of GAL3-ITGb3 interaction” value in test [4] is over 90%. The “percent blockade of GAL3-ITGa3 interaction” value in [5] is over 90%. Binding in test [6] was characterised by a dissociation constant (Kd) of 27.8 nM. Moreover, in [7], the “Gal3-INSR binding remaining, %” value is under 5%.
